Measured values taken from patent USRE50230E1, “Method of treatment of hypoxia inducible factor (HIF)-related conditions” (GRIFOLS WORLDWIDE OPERATIONS LIMITED, priority 2014, dated 2024).

Legend:
[1] = Modified Bederson and General Behavioral scores in rats; type: in vivo, rat; settings: rats intravenously treated
Description: In vivo neurological function was assessed by a modified Bederson score (Bederson et al., 1986b; Crumrine et al., 2011) using the following definitions:
Score 0: No apparent neurological deficits;
Score 1: Body torsion present;
Score 2: Body torsion with right side weakness;
Score 3: Body torsion, right side weakness with circling behavior; and
Score 4: Seizure Activity.
General behavioral scores of rats were developed by the CALS personnel for the purpose of monitoring recovery of animals following surgical procedures (standard CALS post-operative care). A numerical value was assigned to the predetermined behavioral observations.
Score 0: Behavior consistent with a normal naïve rat (i.e. no ipsilateral deficit);
Score 1: Bright/active/responsive; the rat spontaneously moves and explores his cage, responds to external stimuli, explores the top of the cage;
Score 2: Quiet/alert/responsive; reserved behavior but will respond to external stimulus, tends not to rear or explore the top of the cage;
Score 3: Depressed behavior: tends not to move unless prodded, quickly returns to a somnolent state, little to no interest in external stimuli;
Score 4: Unresponsive: remains in a prostrate position even when prodded; and Score 5: Seizure activity requiring euthanasia.

[2] = tested on: HIF1 alpha protein; test: HIF1 alpha protein levels by ELISA in RPTEC cells; type: cell-based, human; settings: 4 mg/mL, 6 hrs, normal oxygen
Source text: (§1) It is well-known in the art that many small molecules used for the treatment of conditions related or provoked by hypoxia are toxic and have numerous side effects, e.g. DFO. One of the most apparent side effects of said small molecules is kidney toxicity. Therefore, in order to assess whether transferrin and/or mixtures increase HIF1 alpha levels in primary kidney cells; human primary kidney cells, both primary human renal proximal tubule epithelial (RPTEC) or cortical epithelial cells (HRCE) were obtained. Primary human renal proximal tubule epithelial (RPTEC) or primary cortical epithelial (HRCE) cells cultured in serum free media were treated with 4 mg/mL majority Apo-transferrin, majority Holo-transferrin or various mixtures of each for 6 hrs under normal oxygen levels. After 6 hrs intracellular proteins were harvested and tested for HIF1 alpha protein levels by ELISA. FIGS. 10A and 10B reveal that HIF1 alpha levels are induced with transferrin composed of mixtures of Apo-transferrin and Holo-transferrin in RPTEC and HRCE, respectively.

[3] = tested on: HIF1 alpha protein; test: HIF1 alpha protein levels by ELISA in HRCE cells; type: cell-based, human; settings: 4 mg/mL, 6 hrs, normal oxygen
Source text: as §1

[4] = tested on: primary human hepatocytes; test: Cell Titer Glow viability assay, primary human hepatocytes; type: cell-based; settings: 4 mg/mL, 72 hours
Description: Given the anticipated safety profile of a human plasma protein, toxicity of transferrins (majority Apo, majority Holo and pd-transferrin) in NCI-H1650 and primary human hepatocyte cells was assessed. The human lung cell line, NCI-H1650, and primary human hepatocytes were treated for 72 hours with 4 mg/mL of majority ApoTf, majority HoloTf, or pd-transferrin. After 72 hours, cells were subjected to a Cell Titer Glow viability assay. Control cells, untreated cells, were set to a value of 100% viable. The average viability and standard deviations are shown in FIGS. 14A and 14B for each treatment condition.

[5] = MCAo (Middle Cerebral Artery occlusion) rat model of brain stroke, infarct volume; type: in vivo; settings: 385 mg/kg, IV, transient MCAo rat
[6] = tested on: renal proximal tubule epithelial (RPTEC) cells; test: Cell Titer Glow viability assay, RPTEC cells; type: cell-based, human; settings: 48 hours
Description: (§2) Considering the anticipated safety profile of a human plasma protein, toxicity of DFO and transferrins (majority Apo, majority Holo and mixtures) was assessed in primary human kidney cells. The renal proximal tubule epithelial (RPTEC) or cortical epithelial (HRCE) cells were treated with the indicated concentrations of majority ApoTf or DFO for 48 hours (FIG. 11A); and RPTEC or HRCE cells were treated for 72 hrs with 4 mg/mL of majority ApoTf, majority HoloTf, mixtures of transferrin (FIG. 11B). After 48 or 72 hours, cells were subjected to a Cell Titer Glow viability assay. Control cells, untreated cells, were set to a value of 100% viable. The average viability and standard deviations are shown for each treatment condition.

[7] = tested on: cortical epithelial (HRCE) cells; test: Cell Titer Glow viability assay, HRCE cells; type: cell-based, human; settings: 48 hours
Description: as §2

Substance: majority HoloTf: plasma derived transferrin composition, majority diferric holo-transferrin (30% ApoTf, 70% HoloTf)
- modified Bederson and General Behavioral scores [1]: no detrimental effects
- HIF1 alpha levels [2]: Induce
- HIF1 alpha levels [3]: Induce
- toxicity (cell viability) [4]: no toxicity

Substance: majority ApoTf: plasma derived transferrin composition, majority iron-free apo-transferrin (98% ApoTf, 2% HoloTf)
- modified Bederson and General Behavioral scores [1]: neither compositions of majority ApoTf nor majority HoloTf showed significant differences
- volume of the infarcted area vs saline control [5]: significant decrease
- HIF1 alpha levels [2]: Induce
- HIF1 alpha levels [3]: Induce
- toxicity (cell viability) [6]: none of the transferrin molecules showed any detrimental effects
- toxicity (cell viability) [7]: none of the transferrin molecules showed any detrimental effects
- toxicity (cell viability) [4]: no toxicity
